Test results published in patent US20240360248A1 (NANOMAB TECHNOLOGY, published 2024).
Residue numbers refer to the chain shown, from its start. Blank lines part the entries; values can stand above or below the binder they belong to.

How the values were obtained:
[1] = target: T1, human PTK7-Fc protein antigen (human, UniProt Q13308 31-704); test: SPR (Biacore 8K), human PTK7-Fc amine-coupled on CM-5 chip, VHH as analyte
T1 construct: extracellular domain; also called human PTK7 extracellular segment protein; not shown: Fc from the pFUSE-IgG recombinant plasmid
T1 sequence (looked up): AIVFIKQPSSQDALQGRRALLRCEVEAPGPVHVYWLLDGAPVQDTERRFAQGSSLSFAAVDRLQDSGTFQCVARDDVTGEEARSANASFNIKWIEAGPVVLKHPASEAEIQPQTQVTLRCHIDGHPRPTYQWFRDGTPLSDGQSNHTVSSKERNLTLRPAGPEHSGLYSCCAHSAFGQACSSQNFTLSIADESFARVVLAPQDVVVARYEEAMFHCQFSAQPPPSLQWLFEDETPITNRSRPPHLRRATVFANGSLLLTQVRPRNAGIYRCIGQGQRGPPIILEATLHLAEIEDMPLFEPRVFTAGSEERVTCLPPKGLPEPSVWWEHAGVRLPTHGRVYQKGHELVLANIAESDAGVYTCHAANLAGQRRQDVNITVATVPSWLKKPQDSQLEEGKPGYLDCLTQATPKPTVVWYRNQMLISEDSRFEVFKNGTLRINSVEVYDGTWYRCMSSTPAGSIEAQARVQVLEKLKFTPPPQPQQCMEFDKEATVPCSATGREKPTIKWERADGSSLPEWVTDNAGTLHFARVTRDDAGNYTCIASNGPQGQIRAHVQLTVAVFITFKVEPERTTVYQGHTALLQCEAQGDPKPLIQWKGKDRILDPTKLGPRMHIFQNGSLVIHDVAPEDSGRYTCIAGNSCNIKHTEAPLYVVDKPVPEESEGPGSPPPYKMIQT
Protocol: The fixed phase human PTK7-Fc antigen proteins were fixed on the surface of CM-5 sensing chip using carboxyl amino reaction. The anti-PTK7 single domain antibodies were diluted with HBS buffer to different concentrations, and the anti-PTK7 single domain antibodies were added at a flow rate of 30 μl/min, binding for 90 seconds, dissociating for 600 seconds, and the binding process between the anti-PTK7 single domain antibody and the antigen was observed. After rinsing with 10 mM glycine solution for chip regeneration, the next anti-PTK7 single domain antibody assay was proceeded.

[2] = target: T2, PTK7-Fc antigen protein from mouse species (mouse, UniProt Q8BKG3 23-696, limits assumed); test: ELISA, antigen coated on plate, VHH in gradient dilution, anti-His/anti-HA-HRP; Kd calculated from absorbance at 450 nm
T2 construct: also called Mouse PTK7; not shown: Fc
T2 sequence (looked up): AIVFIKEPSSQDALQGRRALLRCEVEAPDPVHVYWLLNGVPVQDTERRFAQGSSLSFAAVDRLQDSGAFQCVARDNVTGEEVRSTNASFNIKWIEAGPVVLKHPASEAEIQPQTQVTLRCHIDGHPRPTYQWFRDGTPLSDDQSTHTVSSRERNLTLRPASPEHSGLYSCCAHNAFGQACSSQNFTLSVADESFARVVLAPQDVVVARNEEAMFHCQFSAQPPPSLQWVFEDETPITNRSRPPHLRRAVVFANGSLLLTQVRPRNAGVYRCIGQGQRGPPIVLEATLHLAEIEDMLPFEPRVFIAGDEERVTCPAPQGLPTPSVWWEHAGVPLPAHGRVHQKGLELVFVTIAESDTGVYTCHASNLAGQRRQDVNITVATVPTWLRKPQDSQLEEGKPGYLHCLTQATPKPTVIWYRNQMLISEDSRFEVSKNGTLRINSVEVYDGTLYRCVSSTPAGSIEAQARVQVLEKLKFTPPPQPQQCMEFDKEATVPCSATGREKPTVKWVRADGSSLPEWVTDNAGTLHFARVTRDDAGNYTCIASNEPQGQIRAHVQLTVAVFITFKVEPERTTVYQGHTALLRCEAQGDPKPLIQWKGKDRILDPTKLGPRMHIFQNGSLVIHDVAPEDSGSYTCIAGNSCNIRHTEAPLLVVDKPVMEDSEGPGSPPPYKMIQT
Protocol: (§1) The ELISA plates were coated with PTK7-Fc antigen proteins from human, or mouse species, or PTK7-His antigen protein from rhesus monkey species, overnight at 4° C. The plates were washed for 4 times with PBS-T the next day, added with 1% BSA, and blocked at room temperature for 2 hours. The plates were washed for 4 times with PBS-T, added with the anti-PTK7 single domain antibodies diluted in gradient, and kept at 37° C. for 1 hour. The plates were washed for 4 times with PBS-T, added with mouse anti-His-HRP antibody or mouse anti-HA-HRP antibody, and kept at 37° C. for 1 hour. The plates were washed for 4 times with PBS-T, added with TMB soluble substrate, and kept at room temperature for 10 minutes. The absorption value was read at a wavelength of 450 nm and the Kd value of each single domain antibody was calculated based on the absorption value.
(§2) The anti-PTK7 single domain antibodies of the present invention can bind to human, mouse or rhesus monkey PTK7.

[3] = target: T1, human PTK7-Fc protein antigen; test: as above
Protocol: as §1, §2

[4] = target: T3, PTK7-His antigen protein from rhesus monkey species (rhesus monkey, UniProt F7G3Z5 39-712); test: as above
T3 construct: also called Rhesus monkey PTK7; not shown: His tag
T3 sequence: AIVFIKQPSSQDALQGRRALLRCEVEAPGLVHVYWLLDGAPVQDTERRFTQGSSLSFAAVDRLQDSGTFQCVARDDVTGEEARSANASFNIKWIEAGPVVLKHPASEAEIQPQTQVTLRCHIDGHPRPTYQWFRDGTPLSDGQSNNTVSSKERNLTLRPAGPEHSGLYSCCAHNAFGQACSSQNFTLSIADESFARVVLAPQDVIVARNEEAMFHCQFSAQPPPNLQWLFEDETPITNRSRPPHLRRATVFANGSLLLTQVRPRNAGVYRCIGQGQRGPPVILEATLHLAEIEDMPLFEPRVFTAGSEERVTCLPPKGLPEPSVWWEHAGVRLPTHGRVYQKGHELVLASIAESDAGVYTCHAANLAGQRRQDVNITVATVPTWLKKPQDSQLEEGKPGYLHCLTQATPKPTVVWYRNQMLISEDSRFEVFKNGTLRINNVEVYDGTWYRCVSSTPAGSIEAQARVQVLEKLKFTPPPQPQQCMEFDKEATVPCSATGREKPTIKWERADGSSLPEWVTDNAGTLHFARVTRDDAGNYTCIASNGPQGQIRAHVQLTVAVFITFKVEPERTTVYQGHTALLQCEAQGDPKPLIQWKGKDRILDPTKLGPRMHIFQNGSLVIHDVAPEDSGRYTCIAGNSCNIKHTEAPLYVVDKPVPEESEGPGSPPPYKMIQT
Protocol: as §1, §2

B2: MY2132-4-55 (VHH)
VHH: QVQLQESGGGSVQAGGSLRLSCAASGYIWSRYCMGWFRQAPGKAREGVARFNSDGNTRYVDSVKGRFTISRDNAKNTLYLQMNNLQPEDTARYYCAADPRFDCGYDAVFNPTHFPYWGRGTQVTVSS
notes: Camel VHH expressed in E. coli WK6 and purified on a nickel column; also called MY2132-4-55 VHH; anti-PTK7 single domain antibody
Kd [1]: 0.18 nM | koff [1]: 0.000314 s⁻¹ | kon [1]: 1.76e+06 M⁻¹ s⁻¹ | EC50 [3]: 0.49 nM

B3: MY2132-4-79 (VHH)
VHH: B2 VHH with R119Q
notes: Camel VHH expressed in E. coli WK6 and purified on a nickel column; also called MY2132-4-79 VHH; anti-PTK7 single domain antibody
Kd [1]: 0.22 nM | koff [1]: 0.000358 s⁻¹ | kon [1]: 1.64e+06 M⁻¹ s⁻¹ | EC50 [3]: 0.59 nM

More lines, in order of falling Kd [1], values ahead:

Kd [1]: 3.45 nM | koff [1]: 0.00166 s⁻¹ | kon [1]: 482000 M⁻¹ s⁻¹ | EC50 [3]: 0.61 nM | EC50 [4]: 1.03 nM
B4: MY2132-5-51 (VHH)
VHH: QVQLQESGGGLVQPGGSLTLACAASGFAFSSYAMRWVRQAPGKGLEGVSSISAGGDETYYADFAKGRFTISRDNAKNTLYLQLNSLKTEDTAMYYCAKGDRNSPRYSSWPITPVGQGTQVTVSS
notes: Camel VHH expressed in E. coli WK6 and purified on a nickel column; also called MY2132-5-51 VHH; anti-PTK7 single domain antibody

Kd [1]: 2.13 nM | koff [1]: 0.0322 s⁻¹ | kon [1]: 1.51e+07 M⁻¹ s⁻¹ | EC50 [2]: 12.7 nM | EC50 [3]: 0.33 nM | EC50 [4]: 0.3 nM
B1: MY2132-4-22 (VHH)
VHH: QVQLQESGGGSVQAGGSLRLSCTASGFTFDDYDMVWYRQAPGNEYEWLSTVSRGGNLYYADSVKGRFTISRDNAKNTVYLNMSRVKPEDTAVYYCAADLRSVPSTYRARTCRGRYCRDYWGQGTQVTVSS
notes: Camel VHH expressed in E. coli WK6 and purified on a nickel column; also called MY2132-4-22 VHH; anti-PTK7 single domain antibody
